Stoichiometry N data for one substance are collected here from publication doi:10.1101/2023.06.08.544223.

The assay has as its target SPARDA complex (heterodimer of NbaAgo and DREN-APAZ), wild type (Novosphingopyxis baekryungensis). In words: SEC.

One may read the stoichiometry N as a count of units in the complex or per binding partner. For the substance “SPARDA complex (heterodimer of NbaAgo and DREN-APAZ), wild type”, the stoichiometry N turned out to be 2.
